This note sets out measurements from patent US20230227537A1.

Several values for one entry are separate records, joined by “and”; a condition that tells them apart may be missing. Identical values can stand only once.

Assay [1] deals with recombinant prefusion stabilized SARS-CoV-2-2P spike protein (SARS-CoV-2) (UniProt P0DTC2).
The target in assay [2] is Mouse IgG1 Fc fused SARS-CoV-2 RBD (Sino Biological) (SARS-CoV-2; mouse) (UniProt P0DTC2).

On to “D72-02: VHH72-GS-hIgG1hinge-hIgG1Fc (Fc fusion)”, for which, in assay [1], the EC50 stood at 0.0223 µg/mL.
Take “VHH72-T60W-hIgG1 Fc (P. pastoris supernatant) (Fc fusion)”: in assay [2], the % Signal decrease over 8 min dissociation was 13% and 15%; the Kd was 75.7 nM and 53.1 nM; the kon was 41500 M⁻¹ s⁻¹ and 49700 M⁻¹ s⁻¹.
“VHH72_D61Q - (GGGGS)x2-hIgG1.Hinge-hIgG1.Fc (Fc fusion)”: in assay [2], the % Signal decrease over 8 min dissociation is 8% and 10%; the equilibrium dissociation constant (Kd) is 0.0661 nM and 0.0642 nM; the koff was 0.000183 s⁻¹ and 0.000205 s⁻¹; the kon is 2.76e+06 M⁻¹ s⁻¹ and 3.19e+06 M⁻¹ s⁻¹.
“VHH72_V100L - (GGGGS)x2-hIgG1.Hinge-hIgG1.Fc (Fc fusion)”: in assay [2], the % Signal decrease over 8 min dissociation is 23% and 25%; the Kd is 0.076 nM and 0.0771 nM; the koff was 0.000557 s⁻¹ and 0.000637 s⁻¹; the kon is 7.34e+06 M⁻¹ s⁻¹ and 8.26e+06 M⁻¹ s⁻¹.

For orientation: EC50 means the concentration that produces a half-maximal response. As usually defined, the Kd is the concentration at which binding is half-saturated. Low values mean higher affinity, high ones lower affinity. As usually defined, the kon is the second-order rate constant of association. A word on the koff: it is the rate constant with which the complex falls apart.
